US20220289795, “EFFICIENT METHOD FOR PREPARING PPR PROTEIN AND USE OF THE SAME” (EditForce, Inc., published 2022)
Numbering of substitutions follows the chain as printed.

Columns and labels:
Experiment in all cases: ELONA; RPB-ELISA
v3.1_PPR17 = target: T1, v3.1_PPR17 (Artificial Sequence); conditions: tags: luciferase fusion; label: 5'-biotin
T1 chain: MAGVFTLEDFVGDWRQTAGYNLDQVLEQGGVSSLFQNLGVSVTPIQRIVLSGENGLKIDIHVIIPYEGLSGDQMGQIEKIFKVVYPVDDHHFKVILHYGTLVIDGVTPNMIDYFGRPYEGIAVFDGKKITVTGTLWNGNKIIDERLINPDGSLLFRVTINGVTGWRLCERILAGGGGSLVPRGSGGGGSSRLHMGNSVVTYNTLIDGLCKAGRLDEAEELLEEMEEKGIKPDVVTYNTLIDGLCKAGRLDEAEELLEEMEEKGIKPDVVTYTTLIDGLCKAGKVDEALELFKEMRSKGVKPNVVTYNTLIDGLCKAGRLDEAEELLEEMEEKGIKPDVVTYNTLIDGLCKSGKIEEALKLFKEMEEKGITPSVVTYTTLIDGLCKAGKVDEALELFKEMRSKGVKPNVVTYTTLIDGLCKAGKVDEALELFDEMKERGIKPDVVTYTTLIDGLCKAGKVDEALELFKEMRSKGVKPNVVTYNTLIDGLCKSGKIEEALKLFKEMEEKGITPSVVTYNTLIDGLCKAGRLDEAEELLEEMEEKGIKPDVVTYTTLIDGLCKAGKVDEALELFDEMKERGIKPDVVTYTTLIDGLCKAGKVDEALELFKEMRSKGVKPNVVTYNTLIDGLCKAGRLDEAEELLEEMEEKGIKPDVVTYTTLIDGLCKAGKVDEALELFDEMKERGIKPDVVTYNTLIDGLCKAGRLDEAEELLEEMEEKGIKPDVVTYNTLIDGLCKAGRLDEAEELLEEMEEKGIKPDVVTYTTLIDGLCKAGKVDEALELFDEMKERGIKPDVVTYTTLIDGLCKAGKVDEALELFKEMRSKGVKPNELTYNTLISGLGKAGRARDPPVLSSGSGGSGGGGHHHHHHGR

v3.1_PPR16 = target: T2, v3.1_PPR16 (Artificial Sequence); conditions: tags: luciferase fusion; label: 5'-biotin
T2 chain: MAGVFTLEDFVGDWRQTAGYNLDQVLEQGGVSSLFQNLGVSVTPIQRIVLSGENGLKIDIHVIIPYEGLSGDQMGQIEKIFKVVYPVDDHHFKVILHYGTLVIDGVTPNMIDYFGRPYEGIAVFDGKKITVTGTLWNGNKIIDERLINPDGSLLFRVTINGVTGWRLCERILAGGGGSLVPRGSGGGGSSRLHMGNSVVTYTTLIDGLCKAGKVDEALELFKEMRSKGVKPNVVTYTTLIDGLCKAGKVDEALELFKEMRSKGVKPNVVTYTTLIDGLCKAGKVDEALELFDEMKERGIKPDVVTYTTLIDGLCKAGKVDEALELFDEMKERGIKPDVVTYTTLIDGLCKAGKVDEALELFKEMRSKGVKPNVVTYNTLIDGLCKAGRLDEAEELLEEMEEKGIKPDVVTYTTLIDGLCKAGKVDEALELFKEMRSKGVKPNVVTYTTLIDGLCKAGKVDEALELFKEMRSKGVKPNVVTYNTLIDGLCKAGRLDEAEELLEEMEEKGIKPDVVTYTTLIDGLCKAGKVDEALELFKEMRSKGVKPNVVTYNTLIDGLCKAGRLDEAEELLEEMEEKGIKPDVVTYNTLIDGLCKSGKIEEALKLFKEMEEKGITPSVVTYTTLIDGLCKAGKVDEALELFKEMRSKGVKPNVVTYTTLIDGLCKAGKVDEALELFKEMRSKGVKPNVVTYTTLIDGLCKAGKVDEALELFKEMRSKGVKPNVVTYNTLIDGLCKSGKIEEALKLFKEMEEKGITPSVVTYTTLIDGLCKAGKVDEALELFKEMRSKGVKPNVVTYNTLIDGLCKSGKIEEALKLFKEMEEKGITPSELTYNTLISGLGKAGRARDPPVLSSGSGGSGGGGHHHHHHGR

NL_v2_PPR16 = target: T3, NL_v2_PPR16 (Artificial Sequence); conditions: tags: N-term luciferase, C-term 6xHis; label: 5'-biotin
T3 chain: T2 chain with K213D, K248D, K353D, K423D, K458D, K528D, K633D, K668D, K703D, K773D

NL_v2_PPR18 = target: T4, NL_v2_PPR18 (Artificial Sequence); conditions: tags: N-term luciferase, C-term 6xHis; label: 5'-biotin
T4 chain: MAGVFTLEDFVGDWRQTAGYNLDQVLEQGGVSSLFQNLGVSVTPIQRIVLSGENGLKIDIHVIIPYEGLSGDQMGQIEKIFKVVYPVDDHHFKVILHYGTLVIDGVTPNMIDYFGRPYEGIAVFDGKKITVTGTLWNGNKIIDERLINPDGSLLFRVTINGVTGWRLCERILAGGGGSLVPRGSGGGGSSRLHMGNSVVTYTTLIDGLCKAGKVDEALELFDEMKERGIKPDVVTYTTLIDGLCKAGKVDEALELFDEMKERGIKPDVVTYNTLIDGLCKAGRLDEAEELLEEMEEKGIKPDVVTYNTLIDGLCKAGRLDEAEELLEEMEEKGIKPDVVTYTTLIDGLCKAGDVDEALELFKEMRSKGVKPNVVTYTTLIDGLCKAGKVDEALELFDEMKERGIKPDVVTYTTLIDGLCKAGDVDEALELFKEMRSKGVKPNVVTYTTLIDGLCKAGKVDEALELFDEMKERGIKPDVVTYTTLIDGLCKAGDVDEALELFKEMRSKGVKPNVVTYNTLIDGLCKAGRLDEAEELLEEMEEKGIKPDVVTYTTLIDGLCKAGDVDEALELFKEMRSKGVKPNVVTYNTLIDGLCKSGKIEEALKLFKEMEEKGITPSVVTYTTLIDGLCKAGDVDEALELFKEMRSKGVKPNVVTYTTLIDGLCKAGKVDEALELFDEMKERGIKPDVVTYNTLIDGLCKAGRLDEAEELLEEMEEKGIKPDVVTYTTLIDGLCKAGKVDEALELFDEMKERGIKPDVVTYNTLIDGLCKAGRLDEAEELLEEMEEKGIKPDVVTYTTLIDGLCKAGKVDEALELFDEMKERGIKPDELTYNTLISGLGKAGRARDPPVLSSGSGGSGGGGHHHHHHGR

v3.1_PPR18 = target: T5, v3.1_PPR18 (Artificial Sequence); conditions: tags: luciferase fusion; label: 5'-biotin
T5 chain: T4 chain with D353K, D423K, D493K, D563K, D633K

Work on GACAUGCUUAUCAGACUGAUGUUGAGACUG (ssRNA) [RNA_17] yielded a binding signal (v3.1_PPR17) of 3.3e+07 luminescence.

In the case of GACAUGCAAGGAUAAUAUCAAACACGACUG (ssRNA) [RNA_16], the binding signal (v3.1_PPR16) is reported as 6.3e+07 luminescence and the binding signal (NL_v2_PPR16) is reported as 2.8e+07 luminescence.

With GACAUGCGGUUAGAGAUACAGUGUGGACUG (ssRNA) [RNA_18] the binding signal (NL_v2_PPR18) was 1.1e+07 luminescence and the binding signal (v3.1_PPR18) was 2.9e+07 luminescence.
